Laboratory results published in US20200281934A1, “SSTR-TARGETED CONJUGATES AND FORMULATIONS THEREOF” (TARVEDA THERAPEUTICS, INC., priority 2017, published 2020).
Where two headings read alike, the source gives them in different places.

How the values were obtained:
Format in all cases: in vivo, human
[1] = test system: somatostatin receptor 2 expressing advanced cancers; test: Phase 1 preliminary anti-tumor activity (RECIST 1.1, duration of response)
Source text: (§1) The objectives of Phase 1 were to assess the safety and tolerability and determine the maximum tolerated dose and recommended Phase 2 dose of Conjugate 57 when administered intravenously on an every 3 week schedule in patients with somatostatin receptor 2 expressing advanced cancers (including gastroenteropancreatic or lung or thymus or other neuroendocrine tumors or small cell lung cancer or large cell neuroendocrine carcinoma of the lung). It also characterized both acute and chronic toxicities of Conjugate 57, characterized key pharmacokinetic parameters of Conjugate 57, DM1, and peptide ligand from Conjugate 57, assessed the potential of Conjugate 57 to induce anti-drug antibodies, and assessed preliminary anti-tumor activity by using standard tumor response criteria (RECIST 1.1) and pharmacodynamic (PDc) biomarker changes that include chromogranin A (CgA), neuron-specific enolase (NSE), and circulating tumor cells (CTCs) in the blood, and 5-hydroxyindoleacetic acid (5-HIAA) in the urine. In addition, the study explored the relationships between tumor SSTR2 expression as measured by multiple modalities (somatostatin analog radioimaging, immunohistochemistry, CTCs, or exosome analyses) and PK, efficacy, safety, anti-Conjugate 57 antibodies, and PDc biomarker changes in the blood. Phase 1 study had two parts: Phase 1 Part A (dose escalation) and Phase 1 Part B (early expansion).
All patients were required to have SSTR2 expressing tumors. Tumor SSTR2 expression was determined by imaging within the preceding approximately 6 months, with Octreoscan or ^68Ga-DOTATATE, ^68Ga-DOTATOC, or ^68Ga-DOTANOC.
The acetate salt of Conjugate 57 was administered to a patient as a 1 hour IV infusion once on an every 3 week schedule to escalating cohorts of 2-6 patients. Patients received Conjugate 57 treatment for 3 weeks, 6 weeks, 9 weeks, 12 weeks, 15 weeks, 18 weeks, 21 weeks, 24 weeks, 27 weeks, 30 weeks, 33 weeks, 36 weeks, 39 weeks, 42 weeks, 45 weeks, 48 weeks, 51 weeks, 54 weeks, 57 weeks, or 60 weeks. There were 7 Cohorts with the starting does of 1.0 mg and the highest dose of 25.0 mg. The doses of Conjugate 57 given to pateints were flat: 1.0 mg, 2.0 mg, 4.0 mg, 8.0 mg, 12.0 mg, 18.0 mg and 25.0 mg. Conjugate 57 concentrate for Solution for Injection is a sterile concentrated liquid containing Conjugate 57, mannitol, Polyoxyl 15 Hydroxystearate and acetate buffer. Each dosage unit contains 2.5 mg of Conjugate 57 (free-form) per mL, 50 mg/mL mannitol, 20 mg/mL Polyoxyl 15 Hydroxystearate and pH 4.0-4.8 acetate buffer in a stoppered 10 mL clear vial. Prior to administration, the product was diluted with 5% Mannitol Injection USP. […]
(§2) Disease response was assessed by duration of response and RECIST 1.1. […]

GI (large bowel) NET = test: Circulating biomarkers of neuroendocrine tumors and symptoms in a GI NET patient; settings: 18 mg
Source text: as §1
A patient with well differentiated, intermediate grade GI (large bowel) NET with metastasis to lymph nodes, bone, lung, and brain was treated with Conjugate 57 at 18 mg. Their tumors progressed on all prior therapies: lanreotide, mTOR inhibitor, and/or 177Lu-DOTATATE. […] Circulating biomarkers of neuroendocrine tumors (NETs), including chromogranin A (CgA), neuron specific enolase (NSE) and circulating tumor cells (CTC), were collected and measured over time. Increased CgA is predictive of poor morphological response, progression free survival (PFS), and overall survival (OS) in pancreatic NETs. Decline in plasma concentration of NSE has been associated with response to treatment. Changes in CTCs has been associated with response to treatment in patients with NETs.

[2] = Phase 1 safety, tolerability and maximum tolerated dose; settings: patients
Source text: as §1, with “Phase 1 study had two parts: Phase 1 Part A (dose escalation) and Phase 1 Part B (early expansion).” left out
as §2

[3] = Phase 1 plasma pharmacokinetics of Conjugate 57 during dose escalation; settings: for AUC(0-inf) / Cmax / clearance / Vd: mean, 1 hour IV infusion; for Vd: read-out: Vz
Description: The acetate salt of Conjugate 57 was administered to a patient as a 1 hour IV infusion once on an every 3 week schedule to escalating cohorts of 2-6 patients. Patients received Conjugate 57 treatment for 3 weeks, 6 weeks, 9 weeks, 12 weeks, 15 weeks, 18 weeks, 21 weeks, 24 weeks, 27 weeks, 30 weeks, 33 weeks, 36 weeks, 39 weeks, 42 weeks, 45 weeks, 48 weeks, 51 weeks, 54 weeks, 57 weeks, or 60 weeks. There were 7 Cohorts with the starting does of 1.0 mg and the highest dose of 25.0 mg. The doses of Conjugate 57 given to pateints were flat: 1.0 mg, 2.0 mg, 4.0 mg, 8.0 mg, 12.0 mg, 18.0 mg and 25.0 mg. Conjugate 57 concentrate for Solution for Injection is a sterile concentrated liquid containing Conjugate 57, mannitol, Polyoxyl 15 Hydroxystearate and acetate buffer. Each dosage unit contains 2.5 mg of Conjugate 57 (free-form) per mL, 50 mg/mL mannitol, 20 mg/mL Polyoxyl 15 Hydroxystearate and pH 4.0-4.8 acetate buffer in a stoppered 10 mL clear vial. Prior to administration, the product was diluted with 5% Mannitol Injection USP. The resulting diluted Conjugate 57 formulation can be infused intravenously.
Serial PK samples were collected prior, during and up to 10 hours after the start of infusion on Day 1 of Cycle 1 and Cycle 3.
Cmax is the maximum (or peak) serum concentration of a drug after the drug has been administrated and before the administration of a second dose. Area under curve to infinity (AUCinf) is a is a theoretical measure of the total exposure of drug to the body from administration till all the drug is eliminated. Clearance (CL) is the volume of plasma cleared of drug per unit time. It is an index of how well a drug is removed irreversibly from circulation. Volume of distribution (Vz) was also measured. Vz represents the degree to which a drug is distributed in body tissue rather than the plasma.

[4] = human, plasma, patients, dose 1 mg
[5] = human, plasma, patients, dose 2 mg
[6] = human, plasma, patients, dose 4 mg
[7] = human, plasma, patients, dose 8 mg
[8] = human, plasma, patients, dose 12 mg
[9] = human, plasma, patients, dose 18 mg
[10] = human, plasma, patients, dose 25 mg

## COc1cc2cc(c1Cl)N(C)C(=O)C[C@H](OC(=O)[C@H](C)N(C)C(=O)CCSSC[C@H](NC(=O)[C@@H]1CSSC[C@H](NC(=O)[C@H](N)Cc3ccccc3)C(=O)N[C@@H](Cc3ccc(O)cc3)C(=O)N[C@H](Cc3c[nH]c4ccccc34)C(=O)N[C@@H](CCCCN)C(=O)N[C@@H]([C@@H](C)O)C(=O)N1)C(N)=O)[C@]1(C)O[C@H]1[C@H](C)[C@@H]1C[C@@](O)(NC(=O)O1)[C@H](OC)/C=C/C=C(\C)C2 [Conjugate 57]
[1]; NET patients
  ongoing patients with SD for 44 and 45 weeks: 2 patients
[1]; among 15 NET patients evaluable for response
  patients with stable disease (SD) at 9 weeks: 11 patients
[1]; dose range 8-18 mg
  patients with target lesion shrinkage: 3 patients
[1]; of the 11 NET patients with SD at 9 weeks
  patients with SD sustained for 18-45 weeks: 8 patients
GI (large bowel) NET
  disease related symptoms of flushing: disappeared after first dose
GI (large bowel) NET; FIG. 2A
  chromogranin A (CgA) level: decreased over time
GI (large bowel) NET; FIG. 2B
  neuron specific enolase (NSE) level: decreased over time
GI (large bowel) NET; FIG. 2C
  circulating tumor cells (CTC) level: decreased over time
[2]; 1.0-25.0 mg IV every 3 weeks
  tolerability: well tolerated
[2]; IV infusion every 3 weeks, flat dose
  maximum tolerated dose (MTD): 18 mg
[3]; 12 mg and higher dose cohorts
  AUCinf relative to efficacious exposure threshold seen in pre-clinical xenograft studies of SCLC models: above efficacious exposure threshold
[3]; human, intravenous, plasma, patients, across all dose cohorts, read-out: Median t½ (half-life) (converted)
  half-life: 1.7 h
[3]; [4]
  AUC(0-inf): 0.0146 µM·h
  Cmax: 7.47 nM
  clearance: 633 mL/min
  Vd: 65 L
[3]; [5]
  AUC(0-inf): 0.0379 µM·h
  Cmax: 20.5 nM
  clearance: 583 mL/min
  Vd: 80 L
[3]; [6]
  AUC(0-inf): 0.118 µM·h
  Cmax: 74.3 nM
  clearance: 333 mL/min
  Vd: 60 L
[3]; [7]
  AUC(0-inf): 0.341 µM·h
  Cmax: 186 nM
  clearance: 250 mL/min
  Vd: 37 L
[3]; [8]
  AUC(0-inf): 0.584 µM·h
  Cmax: 293 nM
  clearance: 217 mL/min
  Vd: 33 L
[3]; [9]
  AUC(0-inf): 0.666 µM·h
  Cmax: 381 nM
  clearance: 267 mL/min
  Vd: 36 L
[3]; [10]
  AUC(0-inf): 1.31 µM·h
  Cmax: 741 nM
  clearance: 183 mL/min
  Vd: 50 L
